For assay [1], the target named is T1, human plasma-derived von Willebrand factor (VWF) (human, UniProt P04275 764-2813).
T1 construct: von Willebrand factor, human, derived from plasma; Plasma VWF is a multimer; also called human VWF; source: human plasma-derived
Put plainly: SPR; Biacore T100, 25°C; human plasma-derived VWF immobilised on flow cells, FVIII variants infused to normalized capture levels, then human α-thrombin at different concentrations applied and rates of release determined. The conditions noted are these: both partners purified. Background: Surface plasmon resonance follows binding to a sensor surface in real time, without labels.

For assay [2], the target named is T1, human plasma-derived von Willebrand …. Put plainly: SPR; Biacore T100, 37°C; human plasma-derived VWF immobilised on flow cells, FVIII variants infused to normalized capture levels, then human α-thrombin at different concentrations applied and rates of release determined. The conditions noted are these: both partners purified.

B1: BDD rFVIII (recombinant B-domain-deleted factor VIII, ReFacto / Xyntha) (natural protein)
chain 1: ATRRYYLGAVELSWDYMQSDLGELPVDARFPPRVPKSFPFNTSVVYKKTLFVEFTDHLFNIAKPRPPWMGLLGPTIQAEVYDTVVITLKNMASHPVSLHAVGVSYWKASEGAEYDDQTSQREKEDDKVFPGGSHTYVWQVLKENGPMASDPLCLTYSYLSHVDLVKDLNSGLIGALLVCREGSLAKEKTQTLHKFILLFAVFDEGKSWHSETKNSLMQDRDAASARAWPKMHTVNGYVNRSLPGLIGCHRKSVYWHVIGMGTTPEVHSIFLEGHTFLVRNHRQASLEISPITFLTAQTLLMDLGQFLLFCHISSHQHDGMEAYVKVDSCPEEPQLRMKNNEEAEDYDDDLTDSEMDVVRFDDDNSPSFIQIRSVAKKHPKTWVHYIAAEEEDWDYAPLVLAPDDRSYKSQYLNNGPQRIGRKYKKVRFMAYTDETFKTREAIQHESGILGPLLYGEVGDTLLIIFKNQASRPYNIYPHGITDVRPLYSRRLPKGVKHLKDFPILPGEIFKYKWTVTVEDGPTKSDPRCLTRYYSSFVNMERDLASGLIGPLLICYKESVDQRGNQIMSDKRNVILFSVFDENRSWYLTENIQRFLPNPAGVQLEDPEFQASNIMHSINGYVFDSLQLSVCLHEVAYWYILSIGAQTDFLSVFFSGYTFKHKMVYEDTLTLFPFSGETVFMSMENPGLWILGCHNSDFRNRGMTALLKVSSCDKNTGDYYEDSYEDISAYLLSKNNAIEPRSFSQNPPVLKRHQR
chain 2: EITRTTLQSDQEEIDYDDTISVEMKKEDFDIYDEDENQSPRSFQKKTRHYFIAAVERLWDYGMSSSPHVLRNRAQSGSVPQFKKVVFQEFTDGSFTQPLYRGELNEHLGLLGPYIRAEVEDNIMVTFRNQASRPYSFYSSLISYEEDQRQGAEPRKNFVKPNETKTYFWKVQHHMAPTKDEFDCKAWAYFSDVDLEKDVHSGLIGPLLVCHTNTLNPAHGRQVTVQEFALFFTIFDETKSWYFTENMERNCRAPCNIQMEDPTFKENYRFHAINGYIMDTLPGLVMAQDQRIRWYLLSMGSNENIHSIHFSGHVFTVRKKEEYKMALYNLYPGVFETVEMLPSKAGIWRVECLIGEHLHAGMSTLFLVYSNKCQTPLGMASGHIRDFQITASGQYGQWAPKLARLHYSGSINAWSTKEPFSWIKVDLLAPMIIHGIKTQGARQKFSSLYISQFIIMYSLDGKKWQTYRGNSTGTLMVFFGNVDSSGIKHNIFNPPIIARYIRLHPTHYSIRSTLRMELMGCDLNSCSMPLGMESKAISDAQITASSYFTNMFATWSPSKARLHLQGRSNAWRPQVNNPKEWLQVDFQKTMKVTGVTTQGVKSLLTSMYVKEFLISSSQDGHQWTLFFQNGKVKVFQGNQDSFTPVVNSLDPPLLTRYLRIHPQSWVHQIALRMEVLGCEAQDLY
modifications: ReFacto/Xyntha (moroctocog alfa): S743-Q1638 fusion by convention, the same junction as printed for rFVIIIFc; mainly two-chain after cleavage at R1648, with a minor single-chain fraction …
With B1, the results for the “thrombin EC50 for release from VWF” value in assay [1] and in assay [2] were 3.3 ± 0.3 U/mL and 4 ± 0.2 U/mL, respectively.

The record behind these values is article PMC4240654, “A Single Chain Variant of Factor VIII Fc Fusion Protein Retains Normal In Vivo Efficacy but Exhibits Altered In Vitro Activity” (PLoS ONE, 2014).
